Values of other authors in paper PMC7252266.

Biological target: UROD (Homo sapiens) (UniProt P06132)

UROD (from UniProt P06132)
Kd: 100 nM
